From the DeepSol protein solubility set

Test: soluble on expression in E. coli; label from the status in PepcDB or PDB records

Sequence | soluble on expression in E. coli
MRITDLLSKDVMIMSLQATTKEAAIDEMIASLKSNGKINDEVLFKEAIMNREAQSSTGVGEGIAMPHAKTKAVNEPTVVFAKSEKGLDYNSLDGQPAHLFFMIAAPDGANATHLETLAALSRLLVHPAFVQSLKDAKTPDDVITLFNNEQGDAEE | not soluble
MRKAERVRKTNETDIELAFTIDGGGQADIKTDVPFMTHMLDLFTKHGQFDLSINAKGDVDIDDHHTTEDIGICLGQALLEALGDKKGIKRYGSAFVPMDEALAQVVIDLSNRPHLEMRADFPAAKVGTFDTELVHEFLWKLALEARMNLHVIVHYGTNTHHMIEAVFKALGRALDEATTIDPRVKGIPSTKGMLLEHHHHHH | not soluble
MRKLSTRPLPLGDGFFDSSSDSSESELSDKDDEDRYSDSTVSTLTSQDRRDTQGCQYPRSSELPISESPAPRARRARKQRSKRKSVKPPNTSSDDSSDDSDDSSSSSSSDDSVSSKSSTNSSDSSPCRCRDGLAEWEQRHGRRWHPYGRNGTWEPYRNRRRGIYDCENSPRETYSNGA | not soluble
MRKLTAMLVASSLALGAAGLAHANEAPKGPGSEHKMMMKEGREHRGMMGSDAMFKELNLTEAQKQQIKDIMKDSREKMHKAMQDDRRDMHSLVASDTFDAAKAQAQLDKADAAHKARMLSGLETKNKIYNVLTPEQKKQYNDSFEKRLTQPPKPDGKPVPAELEHHHHHH | soluble
MRKMKKMDADTLTAILAFQRLSGTGKSLLEGAAKDAEAGRYSIIAINPVHEIKVYQHDYYIDGTHQVVADPLKEIELFIEKAREDELELPLDSGAIGYVGYDVIALYEDLGEIPVETRDIPDIRFYVYESFVIMDHQAEELILVQDNCYSGRSEADLDKALESMLTELTTPKKDEHKAVHVPKMSYKSNYTKDEYMGLVKKAKTYIQEGDFFQIVLSQRLEADFTVKPFDYYRKLRLLNPSPYLYFIDFGDTVLIGSSPESLIKTKGRTVITNPIAGTRRRGATKQEDELLASELLSDEKELAEHRMLVDLGRNDIGKIAETGSVHVPVYLTIERYRFLMHLVSVVEGTLKTGLTAIDALRSTLPAGTVSGAPKIRAMERIYEWENVKRGPYAGAVGYLTKNGDSDFALSIRTMVLHNGKAYVQAGAGIVYDSDPESEYLETLQKAKALLEVGE | not soluble
MRKRLITVKNLFEYVQENELVIQADMIITPGAKDIIRDKGIGVKYEKCCCESESKMKNEIKKDCQNFEKKVIDIITKEFKITDSETVQKILSKLKELL | not soluble
MRKVTLMDVFTHPIAQKYLQRSGVAHAIACAYHAYRLSVKADINPDLAAKAALLHDIGHYEWYTDGKWDYEKYKRNDIHAIKGAERAHKLLIRLGEEPKAAKEIALAILLHTDSYLPEGELDKNTLQQIVKKADELDEEPGGHHHYRQIDPSTARKKIEKLDQLIDQAQASVIKPV | not soluble
MRLFILLSCLLAWVLAAPYIDQEDALRVLNAYLEQFGPGSDRVYYVAEDDHGSMKRGLGPRPLRFG | not soluble
MRLIPLGAAALAGALALAPAARAEMSAAEREAVRAEVRAYLLENPEVLMEAFTALEQRQQLDQVNADLARLQDHSSEIYTDPASWAGGNLQGDITVVEFIDYRCGYCRKANAEVEELVASDGNIRFVLKEYPILGEESVLASRFAISVLQIAGPEPYKAVHDKLITFRGDITTEALGRLADEMKLDRAAILAHMDKDEVTAVIAANHKLAETLEISGTPTFVVDRTMVRGYVPLDGMRQIVEGQRKG | not soluble
MRLLVTGGAGFIGSHFVRQLLAGAYPDVPADEVIVLDSLTYAGNRANLAPVDADPRLRFVHGDIRDAGLLARELRGVDAIVHFAAESHVDRSIAGASVFTETNVQGTQTLLQCAVDAGVGRVVHVSTNQVYGSIDSGSWTESSPLEPNSPYAASKAGSDLVARAYHRTYGLDVRITRCCNNYGPYQHPEKLIPLFVTNLLDGGTLPLYGDGANVREWVHTDDHCRGIALVLAGGRAGEIYHIGGGLELTNRELTGILLDSLGADWSSVRKVADRKGHDLRYSLDGGKIERELGYRPQVSFADGLARTVRWYRENRGWWEPLKATAPQLPATAVEVSA | soluble
MRLNIVVVGVGGQGALTTSGIIARAAMRAGLNVVTAETHGMAQRGGSVEVHVRIGDVRAPLIPEGGADVMIALEPAEALRYAKFLNKNTLVILNTRKIIPPSVTAGTAKYPELDEIIGELRKVTPRVIPVNASEIAEKAGSVLATNVVVVGMLFGYYSMPFGIEHVEEAIRETMKSKIVDLNLKALKMGYNQAI | not soluble
MRLRNKPWAKDKIAAYPQYVIPDPETKRGRWRELFGRDRPIHVEIGTGKGKFITEMAKLHPDVNFIGIELYPSVLVSALDKLIESGLANVKLLNANAKDLTAFFADGEVSRIYLNFSDPWPKKRHEKRRLTYRDFLALYDRILAEDGDIHLKTDNQSFFEYSLVSLSQYGFVLASVQLDLHQSGMTDNVMTEYEEKFSSKGNRIYPMRGGAPAAAVVIGPNRLVGSFSISD | not soluble
MRLTKLAATIGCVTLSGLALVACSSDSTAGTDAVAVGGTFQFHSPDGKMEIFYDEADRQQLPDIGGDSLMEEGTQINLSDFENQVVILNAWGQWCAPCRSESDDLQIIHEELQAAGNGDTPGGTVLGINVRDYSRDIAQDFVTDNGLDYPSIYDPPFMTAASLGGVPASVIPTTIVLDKQHRPAAVFLREVTSKDVLDVALPLVDEA | not soluble
MRLYRDRAVVLRQHKLGEADRIVTLLTRDHGLVRAVAKGVRRTRSKFGARLEPFAHIEVQLHPGRNLDIVTQVVSVDAFATDIVADYGRYTCGCAILETAERLAGEERAPAPALHRLTVGALRAVADGQRPRDLLLDAYLLRAMGIAGWAPALTECARCATPGPHRAFHIATGGSVCAHCRPAGSTTPPLGVVDLMSALYDGDWEAAEAAPQSARSHVSGLVAAHLQWHLERQLKTLPLVERFYQADRSVAERRAALIGQDIAGG | not soluble
MRMRHKPWADDFLAENADIAISNPADYKGKWNTVFGNDNPIHIEVGTGKGQFISGMAKQNPDINYIGIELFKSVIVTAVQKVKDSEAQNVKLLNIDADTLTDVFEPGEVKRVYLNFSDPWPKKRHEKRRLTYSHFLKKYEEVMGKGGSIHFKTDNRGLFEYSLKSFSEYGLLLTYVSLDLHNSNLEGNIMTEYEEKFSALGQPIYRAEVEWRTLEHHHHHH | not soluble
MRMRLMLLGGGNALGQALIRLGAEEDIGFLAPRPPEQGWDAASLTTLLDETRPDAVINLAFYHDWFQAEQVEAERLGAQERAVERLAELCQHYEILLVQPSSYRVFDGARATAYSEKDETLPLGLRGQALWRMEQSVRAACPRHVLIRFGWLLDESPNGLLGRFLSRAEQPQPLFLADDRRGNPTPVDDAARVVLSVLKQLDCQAPLWGTYHYGGLEATTTLALGQVILNEARTYRSNLIQEPSAEAHAARPDALDEPQHAVMVCKKILHTFGIKPRAWRAGLPALLDRYYRHV | not soluble
MRNIMAGFLIFLSSAAYADINLYGPGGPHTALLDAAKLYAEKTGIIVNVHYGPQNKWNEDAKKNADILFGASEQSALAIIRDHKDSFSEKDIQPLYLRKSILLVKKGNPKNIRSIDDLTRPGIGVIVNDGGGTSNTSGTGVWEDIAGRKGNIETVAAIRKNIILYAPNSGTARKALENQPGADVWITWADWAASNPEIGDVVEIAPDYVIWRDMNITVRQDANDETRRFAEWLQTDEAAPAFKKYGWTRKGT | not soluble
MRNMKSTSHESESGKLLSISSCRPREMVLQRYSLGMTVTADRHLADKREEFAVEDISTGIFASGYGQVGDGRSFSFHIEHRSLVVEIYRPRVAGPVPQAEDVVAMAVRGLVDIDLTDERSLAAAVRDSVASAAPVSR | not soluble
MRNNPLIPKSKLPNLGTTIFTQMSALAQKHQAINLSQGFPDFDGPRYLHERLAYHVAQGANQYAPMTGAQALREAIADKTAEIYGYRPDDVSDITVTAGATEALYAAITALVRAGDEVICFDPSYDSYAPAVALSGGVLKRIALTPPHFRVDWQAFSALLSERTRLVILNTPHNPTATVWRQADIEALWQAIGEREIYVLSDEVYEHICFAAEGHASVLAHPQLRERAVAVSSFGKTFHMTGWKIGYCVAPAAISAEIRKVHQYLTFCVNTPAQLALADMLRAAPEHYRALPDFYRKKRDVLVNALAQSRLKVLPCEGTYFLLIDYSAVSTLNDVEFCQWLTEEVGVAAIPLSVFCAAPFPHQLIRLCFAKQESTLLAAAERLCKL | not soluble
MRNNQPVTQKEVTYPPHFNLLSTTTLSSHIKYASKEFCDVAGYTLDELVNQPHNMVRHPDMPPEAFKDMWEHLKAGKSWMGMVKNRCKNGDHYWVDAFASPIKENGK | not soluble
MRNVMKATTLESKFPLLAVENGCIVSKEADVTVAFRVELPELFSVTGSEYEAVHSAWHKAVKVLPEYSIVHKQDFFIEEKYRPETDRDDLSFLSRSFERHFNERPFLNHFCYLFLTKTTKARSRQESTFSTLCKGRLVPKEIEDRETVTRFLEAVGQFEKIMNDSGFVTLRRLTTDEITGTETAAGIVEKYLSLSQHDTTVLKDIQLNPEEMRIGDDILCLHTLSDTEDLPGKVATDSRYERLSTDRSDCRLSFAAPVGLLLDCNHCYNQYIFIDDHGENLKRFEQTARNMHSLSRYSRSNQINKAWIEEYLNEAHSKGLTSVRCHCNVMAWSDDREELRRIKNEVGSQLALMECKPRHNTVDVPTLFWAAIPGNEGDFPFEESFYTFIPQALCFFTEETNYKDSLSPFGIKMADRMTGRPLHLDISDLPMKKGVISNRNKFVLGPSGSGKSFFMNHLVRQYYEQNSHIVLIDTGNSYQGLCELIHRKTKGEDGIYYTYTEEKPISFNPFFTDDYKFSVEKKDSIKTLLLALWKGEDEKVTKTESGELGSAVSAYIRRIQQNRDIAPSFDTFYEYMLNDYRKELAARDIKVSREDFNIDNFLTTLRQYYKGGRYDFLLNSNENIDLLHKRFIVFEIDAVKDNAELFPVVTIIIMEAFINKLRRLKGVRKMLICEEAWKALSSPSMSEYLKYLYKTVRKYFGEAIVVTQEVDDIISSPIVKEAIITNSDCKILLDQKKYMNKFDGIQSMLGLTDKEKSQILSINLANHPGRKYKEVWIGLNGVQSAVYATEVSAAEYLTYTTEESEKTEVFALAEELGGDLELAIKRLAETKYK | not soluble
MRPLDENLRTSAASRPAQSLSVRGQPEAESGAFGEAIADAGRRRTQGQGGQTSADDARRDSVANGGNASAVPKADGFGADVPASTADAASPDARPAYERAIITRDQAAKRLQHSHPAGTRHLSQGREDGGEEIAQPAERAVVRSRETVQTSRDSVDEASGVTAREGGENGDPASGTVSDLLSMLTGAAPAVAAASQPEGRAKPASAVRDGSDGPAKAVGGISPAVPDGEHPQTGEGTGGSEPDRLFRFARADGKGQAVSMNISRDGERAVVENSRSSVKPGVETVTVLEARRYLGLAVNENATSVTTAIAGDSGWAEALQSSAATTKPEAWSQAGKTLNTLKIQMHPVDLGMVTATLRLKDDELQVDLKVETGEAFRQLRDDQSEMVKALRAQGFAVDQVNIVFNGGGDSASGGGGQSQAQAQLGYEGRERAGDDGQGRQPRDGGRAATERWAGNDATDDVPDGAERSRAGHVYM | not soluble
MRPPISSGRIGDGGLDSCPEKKEEEKDSTSRLCSDLSDLRIERIGSTPAFQWISVYTKRPPMKQRFHHNIANSRLSHHAEKGKRDGLFISCVASEANLWALVMDAGTGFTSQVYKFSSTFLPKDWIMKQWEKNYYISSIAGANNGSSLVVMSKGTRYIQQSYKTGDSIPLKWMDKKWKEGFHVTSMTTGGSRWGVVMSRNSGFSEQVMEVDFLNPSEDINRRLESGYMITSMAATADQAALILSIPRRKITDEIQETLRTSSFPSSYVKDKWGKNMFITSICYGRTV | soluble
